Measurements reported in publication PMC10397247.

What was measured:
[1] = biological target: T1, 4H2576-bH; assay: two-hybrid library CCNG1;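 note: natural log of median RNA to DNA barcode read ratio; higher means stronger binding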
T1 chain: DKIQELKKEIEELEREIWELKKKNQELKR

[2] = biological target: T2, 4H2610-bH; assay: two-hybrid library CCNG1;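 note: natural log of median RNA to DNA barcode read ratio; higher means stronger binding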
T2 chain: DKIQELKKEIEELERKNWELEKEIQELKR

[3] = biological target: T3, 4H2618-bH; assay: two-hybrid library CCNG1;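 note: natural log of median RNA to DNA barcode read ratio; higher means stronger binding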
T3 chain: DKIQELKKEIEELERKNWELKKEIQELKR

[4] = biological target: T4, 4H2667-bH; assay: two-hybrid library CCNG1;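 note: natural log of median RNA to DNA barcode read ratio; higher means stronger binding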
T4 chain: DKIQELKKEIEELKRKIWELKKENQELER

[5] = biological target: T5, 4H2697-bH; assay: two-hybrid library CCNG1;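 note: natural log of median RNA to DNA barcode read ratio; higher means stronger binding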
T5 chain: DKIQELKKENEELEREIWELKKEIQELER

[6] = biological target: T6, 4H2729-bH; assay: two-hybrid library CCNG1;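 note: natural log of median RNA to DNA barcode read ratio; higher means stronger binding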
T6 chain: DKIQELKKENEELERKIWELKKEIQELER

[7] = biological target: T7, 4H3112-bH; assay: two-hybrid library CCNG1
T7 chain: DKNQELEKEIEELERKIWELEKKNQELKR

[8] = biological target: T8, 4H3185-bH; assay: two-hybrid library CCNG1
T8 chain: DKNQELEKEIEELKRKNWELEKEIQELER

[9] = biological target: T9, 4H3189-bH; assay: two-hybrid library CCNG1
T9 chain: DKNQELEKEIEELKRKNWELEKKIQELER

[10] = biological target: T10, 4H331-bH; assay: two-hybrid library CCNG1
T10 chain: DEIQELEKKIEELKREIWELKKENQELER

[11] = biological target: T11, 4H3354-bH; assay: two-hybrid library CCNG1
T11 chain: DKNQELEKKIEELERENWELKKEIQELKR

[12] = biological target: T12, 4H338-bH; assay: two-hybrid library CCNG1
T12 chain: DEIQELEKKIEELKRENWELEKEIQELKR

[13] = biological target: T13, 4H3427-bH; assay: two-hybrid library CCNG1
T13 chain: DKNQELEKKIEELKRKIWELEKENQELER

[14] = biological target: T14, 4H3606-bH; assay: two-hybrid library CCNG1
T14 chain: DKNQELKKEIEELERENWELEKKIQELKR

[15] = biological target: T15, 4H370-bH; assay: two-hybrid library CCNG1
T15 chain: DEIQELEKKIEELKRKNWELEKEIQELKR

[16] = biological target: T16, 4H3782-bH; assay: two-hybrid library CCNG1
T16 chain: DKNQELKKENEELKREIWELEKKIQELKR

[17] = biological target: T17, 4H3843-bH; assay: two-hybrid library CCNG1
T17 chain: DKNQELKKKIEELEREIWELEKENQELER

[18] = biological target: T18, 4H3855-bH; assay: two-hybrid library CCNG1
T18 chain: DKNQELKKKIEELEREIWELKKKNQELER

[19] = biological target: T19, 4H4001-bH; assay: two-hybrid library CCNG1
T19 chain: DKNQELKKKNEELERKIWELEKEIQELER

[20] = biological target: T20, 4H454-bH; assay: two-hybrid library CCNG1
T20 chain: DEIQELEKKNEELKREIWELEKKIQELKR

[21] = biological target: T21, 4H462-bH; assay: two-hybrid library CCNG1
T21 chain: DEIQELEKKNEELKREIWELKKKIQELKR

[22] = biological target: T22, 4H568-bH; assay: two-hybrid library CCNG1
T22 chain: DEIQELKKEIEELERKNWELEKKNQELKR

[23] = biological target: T23, 4H607-bH; assay: two-hybrid library CCNG1
T23 chain: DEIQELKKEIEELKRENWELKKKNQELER

[24] = biological target: T24, 4H687-bH; assay: two-hybrid library CCNG1
T24 chain: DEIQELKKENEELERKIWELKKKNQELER

[25] = biological target: T25, 4H717-bH; assay: two-hybrid library CCNG1
T25 chain: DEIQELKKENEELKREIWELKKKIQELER

[26] = biological target: T26, 4H72-bH; assay: two-hybrid library CCNG1
T26 chain: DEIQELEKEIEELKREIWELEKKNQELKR

[27] = biological target: T27, 4H754-bH; assay: two-hybrid library CCNG1
T27 chain: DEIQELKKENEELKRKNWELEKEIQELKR

[28] = biological target: T28, 4H797-bH; assay: two-hybrid library CCNG1
T28 chain: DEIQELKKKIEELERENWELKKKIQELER

[29] = biological target: T29, 4H883-bH; assay: two-hybrid library CCNG1
T29 chain: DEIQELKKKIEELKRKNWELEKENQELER

[30] = biological target: T30, 4H908-bH; assay: two-hybrid library CCNG1
T30 chain: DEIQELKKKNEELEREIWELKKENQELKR

[31] = biological target: T31, 4H918-bA; assay: two-hybrid library CCNG1
T31 chain: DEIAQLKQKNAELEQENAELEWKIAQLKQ

[32] = biological target: T32, 4H918-bH; assay: two-hybrid library CCNG1
T32 chain: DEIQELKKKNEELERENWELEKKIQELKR

[33] = biological target: T33, 4H953-bA; assay: two-hybrid library CCNG1
T33 chain: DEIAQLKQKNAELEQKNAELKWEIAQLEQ

[34] = biological target: T34, 4H953-bH; assay: two-hybrid library CCNG1
T34 chain: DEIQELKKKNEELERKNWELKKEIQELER

[35] = biological target: T35, 4H967-bH; assay: two-hybrid library CCNG1
T35 chain: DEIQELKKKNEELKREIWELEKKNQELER

[36] = biological target: T36, 4H363-bH; assay: two-hybrid library CCNG1
T36 chain: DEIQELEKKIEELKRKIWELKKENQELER

[37] = biological target: T37, 4H3907-bH; assay: two-hybrid library CCNG1
T37 chain: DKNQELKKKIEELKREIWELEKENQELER

[38] = biological target: T38, 4H3961-bH; assay: two-hybrid library CCNG1
T38 chain: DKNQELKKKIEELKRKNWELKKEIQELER

[39] = biological target: T39, 4H470-bH; assay: two-hybrid library CCNG1
T39 chain: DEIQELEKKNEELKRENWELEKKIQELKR

[40] = biological target: T40, 4H1558-AA; assay: two-hybrid library CCmax
T40 chain: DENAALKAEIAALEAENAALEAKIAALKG

[41] = biological target: T41, 4H1867-AA; assay: two-hybrid library CCmax
T41 chain: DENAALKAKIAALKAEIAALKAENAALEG

[42] = biological target: T42, 4H1913-AA; assay: two-hybrid library CCmax; settings: mean of both orientations
T42 chain: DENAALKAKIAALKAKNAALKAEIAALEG

[43] = biological target: T43, 4H249-AA; assay: two-hybrid library CCmax; settings: mean of both orientations
T43 chain: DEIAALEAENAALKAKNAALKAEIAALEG

[44] = biological target: T44, 4H2580-AA; assay: two-hybrid library CCmax; settings: mean of both orientations
T44 chain: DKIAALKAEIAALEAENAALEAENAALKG

[45] = biological target: T45, 4H2608-AA; assay: two-hybrid library CCmax
T45 chain: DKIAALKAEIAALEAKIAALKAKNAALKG

[46] = biological target: T46, 4H2621-AA; assay: two-hybrid library CCmax; settings: mean of both orientations
T46 chain: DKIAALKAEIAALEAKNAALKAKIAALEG

[47] = biological target: T47, 4H2699-AA; assay: two-hybrid library CCmax; settings: mean of both orientations
T47 chain: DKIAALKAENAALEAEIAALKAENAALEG

[48] = biological target: T48, 4H2728-AA; assay: two-hybrid library CCmax; settings: mean of both orientations
T48 chain: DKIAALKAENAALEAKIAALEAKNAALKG

[49] = biological target: T49, 4H2774-AA; assay: two-hybrid library CCmax; settings: mean of both orientations
T49 chain: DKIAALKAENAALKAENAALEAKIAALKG

[50] = biological target: T50, 4H2903-AA; assay: two-hybrid library CCmax; settings: mean of both orientations
T50 chain: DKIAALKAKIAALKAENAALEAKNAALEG

[51] = biological target: T51, 4H2961-AA; assay: two-hybrid library CCmax; settings: mean of both orientations
T51 chain: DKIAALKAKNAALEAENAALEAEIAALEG

[52] = biological target: T52, 4H3049-AA; assay: two-hybrid library CCmax; settings: mean of both orientations
T52 chain: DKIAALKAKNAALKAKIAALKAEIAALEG

[53] = biological target: T53, 4H3129-AA; assay: two-hybrid library CCmax; settings: mean of both orientations
T53 chain: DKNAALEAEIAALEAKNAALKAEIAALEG

[54] = biological target: T54, 4H341-AA; assay: two-hybrid library CCmax; settings: mean of both orientations
T54 chain: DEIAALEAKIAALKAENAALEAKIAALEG

[55] = biological target: T55, 4H3414-AA; assay: two-hybrid library CCmax; settings: mean of both orientations
T55 chain: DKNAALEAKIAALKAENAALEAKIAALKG

[56] = biological target: T56, 4H3595-AA; assay: two-hybrid library CCmax; settings: mean of both orientations
T56 chain: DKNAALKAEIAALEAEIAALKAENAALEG

[57] = biological target: T57, 4H3629-AA; assay: two-hybrid library CCmax; settings: mean of both orientations
T57 chain: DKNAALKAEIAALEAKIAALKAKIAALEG

[58] = biological target: T58, 4H3782-AA; assay: two-hybrid library CCmax; settings: mean of both orientations
T58 chain: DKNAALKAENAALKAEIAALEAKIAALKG

[59] = biological target: T59, 4H380-AA; assay: two-hybrid library CCmax; settings: mean of both orientations
T59 chain: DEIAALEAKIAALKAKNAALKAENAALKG

[60] = biological target: T60, 4H3939-AA; assay: two-hybrid library CCmax; settings: mean of both orientations
T60 chain: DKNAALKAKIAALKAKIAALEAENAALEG

[61] = biological target: T61, 4H3969-AA; assay: two-hybrid library CCmax; settings: mean of both orientations
T61 chain: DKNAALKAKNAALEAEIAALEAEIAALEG

[62] = biological target: T62, 4H446-AA; assay: two-hybrid library CCmax; settings: mean of both orientations
T62 chain: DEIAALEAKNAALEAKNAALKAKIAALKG

[63] = biological target: T63, 4H464-AA; assay: two-hybrid library CCmax; settings: mean of both orientations
T63 chain: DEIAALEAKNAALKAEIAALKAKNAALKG

[64] = biological target: T64, 4H483-AA; assay: two-hybrid library CCmax; settings: mean of both orientations
T64 chain: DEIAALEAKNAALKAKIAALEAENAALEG

[65] = biological target: T65, 4H63-AA; assay: two-hybrid library CCmax; settings: mean of both orientations
T65 chain: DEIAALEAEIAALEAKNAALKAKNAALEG

B1: 4H2576-bH (peptide)
chain: DKIQELKKEIEELEREIWELKKKNQELKR
[1]
  interaction score: 0.71
[2]
  interaction score: -0.788
[3]
  interaction score: 1.01
[4]
  interaction score: 0.467
[5]
  interaction score: -0.201
[6]
  interaction score: 1.93
[7]
  interaction score: 0.913
[8]
  interaction score: 0.137
[9]
  interaction score: 0.969
[10]
  interaction score: 1.97
[11]
  interaction score: -0.952
[12]
  interaction score: 0.794
[13]
  interaction score: 1.73
[14]
  interaction score: -2.37
[15]
  interaction score: 1.62
[16]
  interaction score: -0.128
[17]
  interaction score: 1.11
[18]
  interaction score: 0.305
[19]
  interaction score: 1.28
[20]
  interaction score: 1.67
[21]
  interaction score: 0.615
[22]
  interaction score: 0.102
[23]
  interaction score: -1.37
[24]
  interaction score: -0.475
[25]
  interaction score: -1.86
[26]
  interaction score: 0.621
[27]
  interaction score: -2.65
[28]
  interaction score: -0.961
[29]
  interaction score: -0.465
[30]
  interaction score: -1.34
[31]
  interaction score: -0.341
[32]
  interaction score: -0.721
[33]
  interaction score: -1.63
[34]
  interaction score: -0.152
[35]
  interaction score: -3.3

B2: 4H363-bH (peptide)
chain: DEIQELEKKIEELKRKIWELKKENQELER
[36]
  interaction score: 1.36
[37]
  interaction score: 1.26
[38]
  interaction score: 0.532
[39]
  interaction score: 0.465

B3: 4H1558-AA (peptide)
chain: DENAALKAEIAALEAENAALEAKIAALKG
[40]
  interaction score: 0.452
[41]
  interaction score: -1.23
[42]
  interaction score: 1.75
[43]
  interaction score: 1.51
[44]
  interaction score: -1.57
[45]
  interaction score: -1.1
[46]
  interaction score: 1.29
[47]
  interaction score: -0.582
[48]
  interaction score: -0.226
[49]
  interaction score: -0.715
[50]
  interaction score: -0.294
[51]
  interaction score: -1.19
[52]
  interaction score: 1.32
[53]
  interaction score: 2.15
[54]
  interaction score: 1.27
[55]
  interaction score: 1.1
[56]
  interaction score: -1.53
[57]
  interaction score: 0.444
[58]
  interaction score: -0.467
[59]
  interaction score: 1.48
[60]
  interaction score: -0.411
[61]
  interaction score: -1.28
[62]
  interaction score: -0.543
[63]
  interaction score: 0.907
[64]
  interaction score: 0.272
[65]
  interaction score: -0.799
